In patent US20250019439A1 (Adimab, published 2025):

B1: ADI-30242 (antibody, V domains shown)
VH: QVQLVQSGAEVKKPGSSVKVSCKASGGTFSSYAISWVRQAPGQGLEWMGGIIPIFGTANYAQKFQGRVTITADESTSTAYMELSSLRSEDTAVYYCARGAPNYYGSGGYDDGWFDPWGQGTLVTVSS
VL: EIVLTQSPGTLSLSPGERATLSCRASQSVSSSYLAWYQQKPGQAPRLLIYGASSRATGIPDRFSGSGSGTDFTLTISRLEPEDFAVYYCQQFGRDPTFGGGTKVEIK
notes: anti-ID IgG
B2: ADI-34146 (antibody, V domains shown)
VH: EVQLLESGGGLVQPGGSLRLSCAASGFTFSSYAMSWVRQAPGKGLEWVSTISGSGGSTYYADSVKGRFTISRDNSKNTLYLQMNSLRAEDTAVYYCARLGGRRGSGSSYYYYYGMDVWGQGTTVTVSS
VL: not shown
notes: anti-ID IgG

Assays:
[1] = target: T1, ADI-48576; assay: SPR Carterra, yeast anti-ID
T1 construct: pH-dependent anti-CD3 antibody made in CHO cells
Method: (§1) Kinetic analysis was conducted at 25° C. in an HBSTE running buffer system (Carterra Cat #3630) using a Carterra LSA (Carterra USA, Salt Lake City, UT). The sample compartment was maintained at 20° C. for the duration of each experiment.
(§2) For antibody capture experiments, a goat anti-human Fc antibody (Jackson ImmunoResearch) was covalently coupled to an HC30M sensor chip surface via standard amine coupling (1:1 EDC:NHS) and then blocked with ethanolamine (1.0 M, pH 8.5). Covalent coupling steps were performed in 25 mM MES buffer (Carterra, Cat #3625) plus 0.05% Tween20. The anti-CD3 antibodies (100 nM in running buffer) were flowed over discrete regions of interest on the chip surface for 5 minutes. […] Dissociation of the anti-idiotype antibodies was monitored for 300s. Several blank buffer samples were injected over the entire chip surface at the start of each non-regenerative kinetic cycle. The preceding blank buffer injection was used for blank surface subtraction. At the end of each non-regenerative kinetic cycle, all surfaces were regenerated via two 30s injections of 10 mM glycine, pH 1.7.
(§3) For data processing and fitting, sensorgrams were double reference subtracted with a baseline drift correction of 4 RU. Sensorgrams were y-aligned and baseline corrected, filtered and cropped to include only the association and dissociation steps. Data was fitted to a 1:1 binding model using Carterra Kinetics Data Analysis software version 1.7.1.3055.

[2] = target: T2, CTL-62227; assay: SPR Carterra, yeast anti-ID
T2 construct: also called odronextamab
Method: as §1, §2, §3

[3] = target: T3, CTL-62228; assay: SPR Carterra, yeast anti-ID
T3 construct: also called glofitamab
Method: as §1, §2, §3

[4] = target: T4, CTL-62240; assay: SPR Carterra, yeast anti-ID
T4 construct: also called ONO-4685
Method: as §1, §2, §3

[5] = target: T5, ADI-50024; assay: SPR Carterra avidity, yeast anti-ID
T5 construct: anti-CD3 antibody made in CHO cells, captured by anti-human Fc
Method: as §1, §2, §3

[6] = target: T6, ADI-70326; assay: SPR Carterra avidity, yeast anti-ID
T6 construct: anti-CD3 antibody made in CHO cells, captured by anti-human Fc
Method: as §1, §2, §3

[7] = target: T7, ADI-70327; assay: SPR Carterra avidity, yeast anti-ID
T7 construct: anti-CD3 antibody made in CHO cells, captured by anti-human Fc
Method: as §1, §2, §3

[8] = target: T8, ADI-70330; assay: SPR Carterra avidity, yeast anti-ID
T8 construct: anti-CD3 antibody made in CHO cells, captured by anti-human Fc
Method: as §1, §2, §3

[9] = target: T9, ADI-26906 IgG; assay: SPR Carterra avidity, yeast anti-ID
T9 construct: anti-CD3 IgG
Method: as §1, §2, §3

[10] = target: T10, ADI-67450; assay: SPR Carterra avidity, yeast anti-ID
T10 construct: anti-CD3 antibody made in CHO cells, captured by anti-human Fc
Method: as §1, §2, §3

[11] = target: T11, ADI-67445; assay: SPR Carterra avidity, yeast anti-ID
T11 construct: anti-CD3 antibody made in CHO cells, captured by anti-human Fc
Method: as §1, §2, §3

[12] = target: T12, ADI-67447; assay: SPR Carterra avidity, yeast anti-ID
T12 construct: anti-CD3 antibody made in CHO cells, captured by anti-human Fc
Method: as §1, §2, §3

[13] = target: T13, ADI-26909; assay: SPR Carterra avidity, yeast anti-ID
T13 construct: anti-CD3 antibody made in CHO cells, captured by anti-human Fc
Method: as §1, §2, §3

[14] = target: T14, ADI-26913 IgG; assay: SPR Carterra avidity, yeast anti-ID
T14 construct: anti-CD3 IgG
Method: as §1, §2, §3

[15] = target: T15, ADI-26921 IgG; assay: SPR Carterra avidity, yeast anti-ID
T15 construct: anti-CD3 IgG
Method: as §1, §2, §3

[16] = target: T16, ADI-26916 IgG; assay: SPR Carterra avidity, yeast anti-ID
T16 construct: anti-CD3 IgG
Method: as §1, §2, §3

[17] = target: T17, ADI-26912; assay: SPR Carterra avidity, yeast anti-ID
T17 construct: anti-CD3 antibody made in CHO cells, captured by anti-human Fc
Method: as §1, §2, §3

[18] = target: T18, ADI-26915; assay: SPR Carterra avidity, yeast anti-ID
T18 construct: anti-CD3 antibody made in CHO cells, captured by anti-human Fc
Method: as §1, §2, §3

[19] = target: T19, ADI-48587; assay: SPR Carterra avidity, yeast anti-ID
T19 construct: pH-dependent anti-CD3 antibody made in CHO cells
Method: as §1, §2, §3

[20] = target: T20, ADI-48592; assay: SPR Carterra avidity, yeast anti-ID
T20 construct: pH-dependent anti-CD3 antibody made in CHO cells
Method: as §1, §2, §3

[21] = target: T21, ADI-48650; assay: SPR Carterra avidity, yeast anti-ID
T21 construct: pH-dependent anti-CD3 antibody made in CHO cells
Method: as §1, §2, §3

[22] = target: T22, ADI-74965; assay: SPR Carterra avidity, yeast anti-ID
T22 construct: pH-dependent anti-CD3 antibody made in CHO cells
Method: as §1, §2, §3

[23] = target: T23, ADI-74966; assay: SPR Carterra avidity, yeast anti-ID
T23 construct: pH-dependent anti-CD3 antibody made in CHO cells
Method: as §1, §2, §3

[24] = target: T24, ADI-74968; assay: SPR Carterra avidity, yeast anti-ID
T24 construct: pH-dependent anti-CD3 antibody made in CHO cells
Method: as §1, §2, §3

[25] = target: T25, ADI-76357; assay: SPR Carterra avidity, yeast anti-ID
T25 construct: anti-CD3 antibody made in CHO cells, captured by anti-human Fc
Method: as §1, §2, §3

[26] = target: T26, ADI-76358; assay: SPR Carterra avidity, yeast anti-ID
T26 construct: anti-CD3 antibody made in CHO cells, captured by anti-human Fc
Method: as §1, §2, §3

[27] = target: T27, ADI-76360; assay: SPR Carterra avidity, yeast anti-ID
T27 construct: anti-CD3 antibody made in CHO cells, captured by anti-human Fc
Method: as §1, §2, §3

[28] = target: T28, ADI-76361; assay: SPR Carterra avidity, yeast anti-ID
T28 construct: anti-CD3 antibody made in CHO cells, captured by anti-human Fc
Method: as §1, §2, §3

[29] = target: T29, ADI-76362; assay: SPR Carterra avidity, yeast anti-ID
T29 construct: anti-CD3 antibody made in CHO cells, captured by anti-human Fc
Method: as §1, §2, §3

[30] = target: T30, CTL-62223; assay: SPR Carterra avidity, yeast anti-ID
T30 construct: also called mosunetuzumab
Method: as §1, §2, §3

[31] = target: T31, ADI-22523 Fab; assay: BLI; tip anti-ID IgG, solution ADI-22523 Fab
T31 construct: anti-CD3 Fab by papain digestion of the IgG
Method: (§4) ForteBio affinity measurements were performed generally as previously described (Estep et al., MAbs. 2013 5(2):270-8). Briefly, ForteBio affinity measurements were performed by loading antibody IgG or Fabs on-line onto AHC sensors. Sensors were equilibrated off-line in assay buffer for 30 minutes and then monitored on-line for 60 seconds for baseline establishment. For avid binding measurement, sensors with loaded antibodies were exposed to IgG or Fab solutions for 3 minutes, afterwards they were transferred to assay buffer for 3 minutes for off-rate measurement. Kinetics data were fit using a 1:1 binding model in the data analysis software provided by ForteBio to obtain equilibrium dissociation constant (KD=koff/kₒₙ) values. In each column, tip-immobilized antibodies are listed first and solution antibodies second.

[32] = target: T32, ADI-22523 IgG; assay: BLI; tip anti-ID IgG, solution ADI-22523 IgG
T32 construct: anti-CD3 IgG
Method: as §4

[33] = target: T33, ADI-26919; assay: SPR Carterra avidity, yeast anti-ID, *koff limit
T33 construct: anti-CD3 antibody made in CHO cells, captured by anti-human Fc
Method: as §1, §2, §3

[34] = target: T34, ADI-26920 IgG; assay: SPR Carterra avidity, yeast anti-ID, *koff limit
T34 construct: anti-CD3 IgG
Method: as §1, §2, §3

[35] = target: T35, ADI-26924; assay: SPR Carterra avidity, yeast anti-ID, *koff limit
T35 construct: anti-CD3 antibody made in CHO cells, captured by anti-human Fc
Method: as §1, §2, §3

[36] = target: T36, ADI-26943; assay: SPR Carterra avidity, yeast anti-ID, *koff limit
T36 construct: anti-CD3 antibody made in CHO cells, captured by anti-human Fc
Method: as §1, §2, §3

[37] = target: T37, ADI-74967; assay: SPR Carterra avidity, yeast anti-ID, *koff limit
T37 construct: pH-dependent anti-CD3 antibody made in CHO cells
Method: as §1, §2, §3

[38] = target: T38, ADI-76359; assay: SPR Carterra avidity, yeast anti-ID, *koff limit
T38 construct: anti-CD3 antibody made in CHO cells, captured by anti-human Fc
Method: as §1, §2, §3

[39] = target: T33, ADI-26919; assay: SPR Carterra avidity, yeast anti-ID
Method: as §1, §2, §3

[40] = target: T36, ADI-26943; assay: SPR Carterra avidity, yeast anti-ID
Method: as §1, §2, §3

[41] = target: T1, ADI-48576; assay: SPR Carterra avidity, yeast anti-ID
Method: as §1, §2, §3

[42] = target: T37, ADI-74967; assay: SPR Carterra avidity, yeast anti-ID
Method: as §1, §2, §3

[43] = target: T38, ADI-76359; assay: SPR Carterra avidity, yeast anti-ID
Method: as §1, §2, §3

[44] = target: T12, ADI-67447; assay: SPR Carterra avidity, yeast anti-ID, *koff limit
Method: as §1, §2, §3

T2 sequence (VH, as listed by the source, chain 1 of 2): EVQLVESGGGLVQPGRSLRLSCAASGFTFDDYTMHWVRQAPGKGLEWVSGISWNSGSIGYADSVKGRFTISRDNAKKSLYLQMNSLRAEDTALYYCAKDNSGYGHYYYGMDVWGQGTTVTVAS
T2 sequence (VL, as listed by the source, chain 2 of 2): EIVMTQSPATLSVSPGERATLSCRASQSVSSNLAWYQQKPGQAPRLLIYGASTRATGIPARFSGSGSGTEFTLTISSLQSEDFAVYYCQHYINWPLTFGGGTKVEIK
T8 sequence (VH, as listed by the source limits assumed, chain 1 of 2): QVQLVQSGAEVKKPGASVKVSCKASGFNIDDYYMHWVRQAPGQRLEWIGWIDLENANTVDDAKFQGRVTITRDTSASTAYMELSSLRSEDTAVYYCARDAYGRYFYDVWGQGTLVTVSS
T8 sequence (VL, as listed by the source limits assumed, chain 2 of 2): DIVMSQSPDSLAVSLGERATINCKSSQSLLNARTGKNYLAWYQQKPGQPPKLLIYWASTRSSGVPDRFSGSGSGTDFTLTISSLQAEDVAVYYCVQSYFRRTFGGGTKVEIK
T33 sequence (VH, as listed by the source limits assumed, chain 1 of 2): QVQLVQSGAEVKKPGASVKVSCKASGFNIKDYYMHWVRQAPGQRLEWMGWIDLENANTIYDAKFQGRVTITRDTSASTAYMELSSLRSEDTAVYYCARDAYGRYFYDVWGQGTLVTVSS
T33 sequence (VL, as listed by the source limits assumed, chain 2 of 2): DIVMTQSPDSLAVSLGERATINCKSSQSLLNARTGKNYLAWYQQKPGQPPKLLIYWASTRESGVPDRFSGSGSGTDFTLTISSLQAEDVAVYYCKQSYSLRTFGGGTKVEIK
T9 sequence (VL, as listed by the source limits assumed, chain 2 of 2): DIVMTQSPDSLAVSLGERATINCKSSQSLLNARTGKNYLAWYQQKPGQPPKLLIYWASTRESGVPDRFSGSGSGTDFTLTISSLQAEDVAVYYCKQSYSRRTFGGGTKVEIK
T5 sequence (VH, as listed by the source limits assumed, chain 1 of 2): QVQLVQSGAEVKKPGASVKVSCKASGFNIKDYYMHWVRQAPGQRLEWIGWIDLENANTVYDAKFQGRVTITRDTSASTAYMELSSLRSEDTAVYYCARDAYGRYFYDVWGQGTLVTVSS
T26 sequence (VH, as listed by the source, chain 1 of 2): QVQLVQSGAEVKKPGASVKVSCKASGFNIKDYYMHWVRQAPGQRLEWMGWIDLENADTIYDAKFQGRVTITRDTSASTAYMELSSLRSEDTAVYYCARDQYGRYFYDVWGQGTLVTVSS
T1 sequence (VH, as listed by the source, chain 1 of 2): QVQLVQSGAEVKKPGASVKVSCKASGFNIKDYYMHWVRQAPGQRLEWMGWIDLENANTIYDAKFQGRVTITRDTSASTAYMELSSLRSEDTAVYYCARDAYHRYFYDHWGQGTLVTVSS
T1 sequence (VL, as listed by the source, chain 2 of 2): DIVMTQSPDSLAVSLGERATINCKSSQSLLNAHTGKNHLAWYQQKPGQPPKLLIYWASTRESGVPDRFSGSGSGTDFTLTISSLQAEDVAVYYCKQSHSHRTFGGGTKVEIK
T14 sequence (VH, as listed by the source limits assumed, chain 1 of 2): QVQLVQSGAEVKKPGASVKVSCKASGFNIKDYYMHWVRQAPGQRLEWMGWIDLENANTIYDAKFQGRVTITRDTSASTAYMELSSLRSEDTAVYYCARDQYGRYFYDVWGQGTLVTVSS
T35 sequence (VH, as listed by the source, chain 1 of 2): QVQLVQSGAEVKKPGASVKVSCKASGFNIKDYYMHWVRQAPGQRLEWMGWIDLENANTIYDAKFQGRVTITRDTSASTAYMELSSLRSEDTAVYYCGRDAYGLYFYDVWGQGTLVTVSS
T4 sequence (VH, as listed by the source, chain 1 of 2): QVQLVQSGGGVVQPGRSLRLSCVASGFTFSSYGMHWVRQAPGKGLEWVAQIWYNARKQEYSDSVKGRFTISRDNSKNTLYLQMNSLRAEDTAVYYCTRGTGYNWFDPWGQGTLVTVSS
T4 sequence (VL, as listed by the source, chain 2 of 2): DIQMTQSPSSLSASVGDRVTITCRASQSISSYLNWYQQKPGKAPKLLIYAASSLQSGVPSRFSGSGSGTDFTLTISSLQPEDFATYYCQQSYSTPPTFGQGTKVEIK
T7 sequence (VH, as listed by the source limits assumed, chain 1 of 2): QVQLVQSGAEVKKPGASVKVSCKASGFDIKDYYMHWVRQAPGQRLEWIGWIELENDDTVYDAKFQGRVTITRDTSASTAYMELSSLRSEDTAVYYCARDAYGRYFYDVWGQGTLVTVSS
T13 sequence (VH, as listed by the source limits assumed, chain 1 of 2): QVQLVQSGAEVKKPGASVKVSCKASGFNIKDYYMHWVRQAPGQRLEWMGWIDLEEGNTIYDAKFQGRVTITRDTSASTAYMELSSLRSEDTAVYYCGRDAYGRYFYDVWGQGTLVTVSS
T16 sequence (VH, as listed by the source, chain 1 of 2): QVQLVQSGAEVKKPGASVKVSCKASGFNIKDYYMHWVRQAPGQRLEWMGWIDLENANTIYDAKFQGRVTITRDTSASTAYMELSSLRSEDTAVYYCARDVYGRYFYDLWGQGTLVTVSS
T28 sequence (VH, as listed by the source, chain 1 of 2): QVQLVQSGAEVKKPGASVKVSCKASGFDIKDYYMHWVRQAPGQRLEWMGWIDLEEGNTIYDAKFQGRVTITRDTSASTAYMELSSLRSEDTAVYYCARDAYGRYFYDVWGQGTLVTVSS
T29 sequence (VH, as listed by the source, chain 1 of 2): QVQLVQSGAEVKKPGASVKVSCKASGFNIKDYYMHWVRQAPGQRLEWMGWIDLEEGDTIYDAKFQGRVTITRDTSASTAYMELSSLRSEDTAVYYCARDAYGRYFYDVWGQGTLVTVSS
T15 sequence (VH, as listed by the source limits assumed, chain 1 of 2): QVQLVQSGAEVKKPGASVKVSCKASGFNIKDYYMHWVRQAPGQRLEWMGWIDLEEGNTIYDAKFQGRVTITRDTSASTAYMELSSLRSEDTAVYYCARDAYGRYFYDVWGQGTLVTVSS
T30 sequence (VH, as listed by the source, chain 1 of 2): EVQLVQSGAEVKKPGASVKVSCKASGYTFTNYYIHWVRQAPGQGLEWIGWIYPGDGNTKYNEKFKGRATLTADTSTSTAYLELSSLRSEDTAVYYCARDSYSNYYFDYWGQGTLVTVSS
T30 sequence (VL, as listed by the source, chain 2 of 2): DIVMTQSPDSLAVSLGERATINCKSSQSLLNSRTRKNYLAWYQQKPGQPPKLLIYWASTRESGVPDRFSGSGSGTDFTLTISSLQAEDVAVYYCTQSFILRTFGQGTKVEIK
T36 sequence (VH, as listed by the source, chain 1 of 2): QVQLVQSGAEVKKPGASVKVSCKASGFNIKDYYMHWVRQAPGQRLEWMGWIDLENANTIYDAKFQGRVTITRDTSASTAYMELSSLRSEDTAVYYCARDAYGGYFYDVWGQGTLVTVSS
T36 sequence (VL, as listed by the source, chain 2 of 2): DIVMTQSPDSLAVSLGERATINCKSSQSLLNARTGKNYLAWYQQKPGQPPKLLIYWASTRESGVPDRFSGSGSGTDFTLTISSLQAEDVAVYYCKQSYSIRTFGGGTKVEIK

| Binder | binding result [2] | binding result [3] | binding result [4] | Kd [5] | Kd [6] | Kd [7] | Kd [8] | Kd [9] | Kd [10] | Kd [11] | Kd [13] | Kd [14] | Kd [15] | Kd [16] | Kd [19] | Kd [21] | Kd [22] | Kd [23] | Kd [24] | Kd [25] | also measured |
| --- | --- | --- | --- | --- | --- | --- | --- | --- | --- | --- | --- | --- | --- | --- | --- | --- | --- | --- | --- | --- | --- |
| B1 | no binding (tested: up to 200 nM) | no binding (tested: up to 200 nM) | no binding (tested: up to 200 nM) | 11 nM | 45 nM | 45 nM | 40 nM | 5.9 nM | 56 nM | 11 nM | 17 nM | 24 nM | 21 nM | 35 nM | 43 nM | 44 nM | 45 nM | 25 nM | 36 nM | 22 nM | binding result [1]: no binding (tested: up to 200 nM); Kd [12]: 8.4 nM; Kd [17]: 33 nM; Kd [18]: 56 nM; binding result [20]: binds; Kd [26]: 42 nM; Kd [27]: 11 nM; Kd [28]: 15 nM; Kd [29]: 27 nM; Kd [30]: 31 nM; Kd [31]: 37.4 nM; Kd [32]: 0.57 nM; Kd [33]: 3.5 nM; Kd [34]: 4.2 nM; Kd [35]: 5.3 nM; Kd [36]: 6.2 nM; Kd [37]: 5.6 nM; Kd [38]: 3.7 nM |
| B2 | no binding (tested: up to 200 nM) | no binding (tested: up to 200 nM) | no binding (tested: up to 200 nM) | 1.1 nM | 3.9 nM | 1.7 nM | 1.2 nM | 0.63 nM | 1.8 nM | 0.93 nM | 0.64 nM | 0.55 nM | 0.24 nM | 1.8 nM | 0.79 nM | 3.3 nM | 0.75 nM | 0.86 nM | 0.41 nM | 0.54 nM | Kd [39]: 0.35 nM; Kd [40]: 0.87 nM; Kd [41]: 12 nM; Kd [20]: 16 nM; Kd [42]: 0.5 nM; Kd [26]: 2.9 nM; Kd [43]: 0.39 nM; Kd [27]: 0.57 nM; Kd [28]: 0.24 nM; Kd [29]: 1.4 nM; Kd [30]: 4.5 nM; Kd [44]: 0.35 nM; Kd [34]: 0.29 nM; Kd [35]: 0.25 nM |
